From patent US6258776A, “Calcium-regulated kinase” (priority 1997, dated 2001)
“Also recorded” adds a separate entry of the source.

Tests used:
HA-Ndr WT [1] = test: A23187 treatment of COS-1 cells co-expressing HA-Ndr WT and S100B, Ndr kinase activity; type: cell-based; details: 20 μM A23187
Experimental: In order to provide direct evidence that Ca^2+ /S100B regulates Ndr activity in vivo, COS-1 cells are co-transfected with expression constructs for Ndr and S100B (pECE-HA-Ndr, which expresses haemaglutinin epitope-tagged Ndr from an SV40 promoter, and pECE-S100B). Two Ndr constructs are used, expressing either wild-type Ndr (Ndr WT) or Ndr lacking the previously identified S100B binding domain (Ndr Δ65-81).Then, the cells are treated for various lengths of time with 20 μM A23187, a calcium ionophore.

GST-Ndr [2] = molecular target: T1, GST-Ndr (Homo sapiens, UniProt Q15208); test: Ndr peptide substrate phosphorylation assay; type: biochemical; details: 0.5 mg/ml peptide, 3 h at 30° C., KKRNRRLSVA = 100%
T1 construct: made in house
T1 sequence (Q15208 whole entry): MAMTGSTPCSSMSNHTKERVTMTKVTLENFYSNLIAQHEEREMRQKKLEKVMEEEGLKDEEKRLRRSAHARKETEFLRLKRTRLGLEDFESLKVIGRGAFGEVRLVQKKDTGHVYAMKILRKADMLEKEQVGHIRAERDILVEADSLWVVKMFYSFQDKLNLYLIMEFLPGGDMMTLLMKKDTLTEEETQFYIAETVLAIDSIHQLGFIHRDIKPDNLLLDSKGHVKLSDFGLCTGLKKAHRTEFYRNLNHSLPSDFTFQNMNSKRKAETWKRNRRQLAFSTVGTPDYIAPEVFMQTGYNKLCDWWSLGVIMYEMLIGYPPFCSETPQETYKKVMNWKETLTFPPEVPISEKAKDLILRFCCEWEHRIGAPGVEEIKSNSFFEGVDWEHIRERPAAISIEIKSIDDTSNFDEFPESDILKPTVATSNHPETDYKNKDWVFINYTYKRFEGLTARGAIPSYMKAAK
Experimental: When incubated in vitro with Mg-ATP, Ndr incorpora tes phosphate by an intramolecular autophosphorylation mechanism (Millward, T. A., et al., (1995) Proc. Natl. Acad. Sci. USA 92, 5022-5026). […] To develop a convenient in vitro kinase assay for Ndr, an assembled library of synthetic peptides is screened for potential Ndr substrates. 5 μg GST-Ndr WT or GST-Ndr K118A (Miliward, T. A., et al., (1995) Proc. Natl. Acad. Sci. USA 92, 5022-5026), immobilised on 2.5 μl glutathione-agarose beads (Sigma), is assayed in a 25 μl reaction containing 50 mM Tris-HCl pH 7.5, […] MgCl2, 1 mM dithiothreitol, 100 μM [γ-^32 P] ATP (0.3 μCi/μl) and 0.5 mg/ml peptide. After incubation at 3 h at 30° C. (during which time phosphate incorporation into peptides is linear), aliquots of the reaction are spotted onto 2 cm^2 squares of P81 phosphocellulose paper (Whatman), which are then washed 5×5 min in 1% phosphoric acid and once in acetone, before counting in a liquid scintillation counter.
Several peptides are identified which could serve as Ndr substrates (Table 1; SEQ. ID. No. 1 to 31). By comparing the efficiency of phosphorylation of the various peptides, several conclusions regarding the substrate specificity of Ndr can be drawn. […] Secondly, most of the peptides which are detectably phosphorylated contained a basic amino acid at position -6 relative to the phosphoaccepting serine. […] A basic amino acid at -6 is however not sufficient for substrate recognition, since this peptide is also not phosphorylated. Thirdly, a basic residue at -5 appeared to be also important, although not essential, for efficient phosphorylation by Ndr. Basic amino acids at -3, -2 and -7 are also important. Proline at +1 appears to be inhibitory, whilst the presence of amino acids carboxy-terminal to the phosphoacceptor is important, removal of the residue at +2 reducing activity. The best Ndr substrate from these series of peptides is ([…], SEQ. ID. No. 1), and this peptide is used for Ndr kinase assays in subsequent experiments.

GST-Ndr [3] = molecular target: T1, GST-Ndr; test: GST-Ndr peptide kinase assay with calcium-binding proteins; type: biochemical; details: added together with Ca^2+; 60 min, 30° C.
Experimental: 1 μg GST-Ndr WT or GST-Ndr K118A, either in solution or immobilised on glutathione-agarose beads, is assayed in a 20 μl reaction containing 20 mM Tris-HCl pH 7.5, 5 mM MgCl2, 1 mM dithiothreitol, 100 μM [γ-^32 P] […] Reactions are supplemented with either 2 mM EGTA or various concentrations of CaCl2. Bovine CaM, bovine S100B (both from Sigma) or recombinant calcium-binding proteins. After incubation at 30° C. for 60 min, aliquots of the reaction are spotted on to P81 phosphocellulose paper and counted as above.
In brief, coding regions are cloned into the PGEMEX expression vector (Promega) and resultant plasmids used to transform E. coli BL-21 LysS cells. After induction, S100 proteins are purified by ammonium sulphate precipitation followed by Ca^2+ -dependent phenyl-Sepharose chromatography.
The proteins are added together with Ca^2+ into GST-N dr peptide kinase assays. The proteins tested comprised S100A1 (S100α), S100A2 (S100L), S100A4 (CAPL), S100A6 (calcyclin) and S100B (S100β); α-parvalbumin is included as a negative control.
In order to estimate the binding affinity of S100B for Ndr, kinase assays are performed in which GST-Ndr is mixed with various concentrations of purified bovine S100B homodimer, in the presence or absence of calcium.
To determine whether activation of Ndr by S100B occurs at physiological Ca^2+ concentrations, Ndr activity is assayed with or without added S100B over a range of Ca^2+ concentrations.

S100B = test: co-immunoprecipitation of Ndr with anti-S100B from COS-1 cells; type: cell-based; details: co-expressed with S100B
Experimental: For expression of Ndr and S100B in mammalian cells, the cDNAs encoding Ndr and S100B are cloned into the pECE vector, which directs expression driven by an SV40-derived promoter. In addition, an amino-terminal truncation mutant of Ndr lacking the first 84 amino acids (1-84) is used.
The plasmids encoding Ndr and S100B are transfected into COS-1 cells, either alone or in combination. Seventy-two hours later, cells extracts are prepared and immunoprecipitated with an antibody recognising S100B. In an anti-Ndr western blot of the cell extracts, it is shown that Ndr is expressed an expected.

[4] = immune complex kinase assay, basal kinase activity of Ndr mutants; type: biochemical; details: compared with wild-type Ndr
Experimental: In immune complex kinase assays and autophosphorylation assays (see below), COS-1 cells are transfected as described above or with pECE-Ndr-K118A. After 72 h, cells are washed with ice-cold PBS and lysed in lysis buffer (20 mM Tris-HCl pH 8.0, 150 mM NaCl, 1% (v/v) NP-40, 10% (v/v) glycerol, 5 mM EDTA, 0.5 mM EGTA, 0.5 mM phenylmethyl-sulfonyl fluoride, 4 μM leupeptin, 1 mM benzamidine, 1 μM microcystin and 1 mM Na3 VO4). Lysates are centrifuged at 14,000 g for 20 min. Duplicate aliquots of supernatant (250 μg, 2.5 mg/ml) are incubated for 2 h at 0° C. with 10 μg/ml Ab^1-465. Immune complexes are precipitated by addition of 2 μl protein A-Sepharose (Pharmacia) and mixing for 1 h. The beads are then washed twice with lysis buffer, once with lysis buffer containing 1 M NaCl, with lysis buffer again, and finally twice with 20 mM Tris-HCl pH 7.5. Beads are resuspended in 30 μl buffer containing 20 mM Tris-HCl pH 7.5, 10 mM MgCl2, 100 μM CaCl2, 1 mM dithiothreitol, 100 μM [γ-^32 P] ATP (0.5 μCi/μls), 1 mM Ndr substrate peptide ([…], SEQ. ID. No. 1), 1 μM cAMP-dependent protein kinase inhibitor peptide (PKI; purchased from Bachem, Bubendorf, Swit zerland), 4 μM leupeptin, 1 mM benzamidine, 1 μM microcystin and, in some assays, 20 μM bovine S100B. After 60 min at 30° C., phosphate incorporation into the peptide is quantitated as described above. […]

calmodulin (CaM-agarose) = test: binding of Ndr and deletion mutants from COS-1 cell lysates to CaM-agarose; details: lysates supplemented with Ca^2+
Excerpt: In addition, the ability of untagged Ndr to interact with CaM is investigated. COS-1 cells are transfected with pECE or with derivative plasmids encoding wild-type Ndr, NdrΔ65-81 or NdrΔ1-84 (Millward, T. A., et al., (1995) Proc. Natl. Acad. Sci. USA 92, 5022-5026) using DEAE-dextran (Seed, B. and Aruffo, A. (1987) Proc. Natl. Acad. Sci. USA 84, 3365-3369). Seventy-two hours after transfection, cells are scraped into ice-cold phosphate-buffered saline (PBS), spun down, and disrupted in buffer A (TBS containing 1 mM dithiothreitol, 0.5 mM phenylmethylsulfonyl fluoride, 4 μM leupeptin and 1 mM benzamidine) using a tight-fitting all-glass dounce homogenizer. Extracts (20 μg) are adjusted to 1 mg/ml, supplemented with either 1 mM CaCl2 or 1 mM EGTA and then mixed for 2 h with 6 μl CaM-agarose. After washing three times with 1 ml of the corresponding binding buffer, the beads are eluted with buffer A containing 5 mM EGTA. Equal portions of the unbound and EGTA-eluted fractions are analysed by immunoblofting with anti-Ndr antibodies.
Samples are separated by SDS-PAGE and electroblotted to Immobilon-P membranes (Millipore). Blots are incubated in blocking buffer (50 mM Tris-HCl pH 7.5, 150 mM NaCl, 1% (v/v) Triton X-1 00, 0.5% (v/v) Tween 20, 5% (w/v) skim milk powder) and then probed for 2 h with primary antibodies diluted in the same buffer. Ndr and GST-Ndr are detected with Ab^452-465 at 4 μg/ml (Millward, T. A., et al., Op. Cit.); GST is detected with an anti-GST antiserum (1 :1000 dilution). Bound antibodies are detected using horseradish peroxidase-conjugated donkey anti-rabbit IgG antibodies and ECL substrates (Amersham).
To verify whether this domain of Ndr is indeed responsible for its interaction with CaM, deletion mutants of Ndr are expressed in COS-1 cells and tested for CaM binding as above. […] In lysates supplemented with Ca^2 , deletion of amino acids 65-81 cause a large reduction in CaM binding (to ~10% of the level of wild-type binding) as assessed by western blotting.

Ndr = details: transphosphorylation; cited from earlier work
HA-Ndr WT [5] = details: 10 nM, 1 h
Experimental: COS-1 cells expressing HA-Ndr WT (as in Example 5) are treated either with solvent alone (Control) or with a panel of cell permeable protein phosphatase inhibitors. The cells are then extracted, HA-Ndr is immunoprecipitated with the anti-HA mAb 12CA5, and the kinase activity of Ndr measured as before, using the peptide substrate.

PP2A = details: 10 nM calyculin A; cited from earlier work
[6] = test system: protein phosphatase 1 (PP1); details: 10 nM calyculin A; cited from earlier work

Row | Relative Ndr Activity (GST-Ndr [2]) [%] | Molecule | also measured
1 | – | CNc1ccc2oc(C[C@H]3O[C@@]4(CC[C@H]3C)O[C@H]([C@H](C)C(=O)c3ccc[nH]3)[C@H](C)C[C@H]4C)nc2c1C(=O)O [A23187] | activation of HA-Ndr (HA-Ndr WT [1]): activation of HA-Ndr WT
2 | 24 | KKRNRTLSV [SEQ. ID. No. 8] | –
3 | – | S100A1: S100 family protein, phylogenetically the closest known relative of S100B | increase in Ndr kinase activity (GST-Ndr [3]): 2-3 fold
4 | 39 | KARNRRLSVA (LARNRRLSVA) [SEQ. ID. No. 2] | –
5 | 15 | KKRNARLSVA [SEQ. ID. No. 4] | –
6 | 30 | KKRNRALSVA [SEQ. ID. No. 5] | –
7 | 18 | KKLNRRLSVA [SEQ. ID. No. 3] | –
8 | – | Δ1-84: Ndr deletion mutant lacking the complete amino terminal domain | co-immunoprecipitation with anti-S100B (S100B): abolishes co-immunoprecipitation; basal kinase activity [4]: only slightly reduced; also recorded: reduced basal kinase activity; binding to CaM-agarose (calmodulin (CaM-agarose)): no longer detectable
9 | 100 | KKRNRRLSVA [SEQ. ID. No. 1] | –
10 | – | myelin basic protein | substrate of Ndr (Ndr): not substrates of Ndr
11 | 0 | KKRNRTLTV [SEQ. ID. No. 9] | –
12 | – | casein | substrate of Ndr (Ndr): not substrates of Ndr
13 | 0 | AARNRTLSVA [SEQ. ID. No. 7] | –
14 | 0 | KKRNRTLSPA [SEQ. ID. No. 10] | –
15 | – | COC[C@@H]([C@H](O)[C@H](O)C(=O)NCC[C@H](C)c1nc(/C=C/C[C@@H]2O[C@]3(C[C@@H](O)[C@@H]2C)O[C@H]([C@H](C[C@H](O)[C@H](C)[C@H](O)[C@H](C)/C=C(C)/C(C)=C/C=C/C(C)=C\C#N)OC)[C@H](OP(=O)(O)O)C3(C)C)co1)N(C)C [calyculin A] | activation of Ndr (HA-Ndr WT [5]): ~ 4 fold; inhibition of PP2A (PP2A): ~ 50%; inhibition of PP1 [6]: ~ 50%

Row | Molecule | Relative Ndr Activity (GST-Ndr [2]) [%] | also measured
16 | KKRNRTLSVA [SEQ. ID. No. 6] | 60 | –
